Experimental data: US20140294731A1 (AC IMMUNE S A, published 2014)
Where no end group is shown, it is not given here. [ ]: non-standard residue; d: D form. The star is where a group is joined. Biotin = O=C1N[C@H]2[C@H](CS[C@H]2CCCCC(=O)*)N1; pS = N[C@@H](COP(=O)(O)O)C(=O)O; LC linker = not defined here

T1: T3.30: Biotin-LC linker-GVYKS[PO3H2]PVVSGDTS[PO3H2]PRHL-NH2 (reading uncertain; also: printed as Biotin-LC linker-GVYKS[PO3H2]PVVSGDTS[PO3H2]PRHL-NH2)
T1 construct: Human Tau 393-408 with an added N-terminal Gly; two lots used: MI89P9-P12-2 (64% pure) and MI89P9-P12-3 (87% pure); also called Phospho-tau peptide; phosphopeptide T3.30
T1 peptide: {Biotin-LC linker}-GVYK[pS]PVVSGDT[pS]PRHL-NH2

T2: non-phosphorylated Tau peptide T3.6: Tau393-408 (human)
T2 construct: Synthetic peptide (PolyPeptide Laboratories); also called non-phospho counterpart of the antigenic peptide; non-phospho-peptide
T2 peptide: VYKSPVVSGDTSPRHL

T3: pTau peptide T3.5: Tau393-408 [pS396/pS404] (human)
T3 construct: Synthetic peptide (PolyPeptide Laboratories), coated on ELISA plates at 10 µg/mL; also called Tau p-peptide; T3: Tau 393-408 [pS396, pS404]
T3 peptide: VYK[pS]PVVSGDT[pS]PRHL


Tests used:
[1] = molecular target: T1, T3.30: Biotin-LC …; assay: SPR (Biacore X), T3.30 on streptavidin chip, antibody injected, 1:1 Langmuir fit; peptide lot 87% pure
Protocol: (§1) All SPR experiments were carried out on a Biacore X instrument (GE Healthcare). Sensor chip SA (Streptavidin derivatized carboxymethyl dextran) was purchased from GE Healthcare. Running buffer was PBS (Dulbecco's PBS, Sigma D8537). Non-covalently bound Streptavidin was firstly removed from the sensor surface by injecting 8 pulses (each ˜1 μL) of 16 mM NaOH (aq). Phospho-tau peptide was then solubilized in PBS to give a final peptide concentration of 1 μM and then injected (35 μL) over flow cell (fc) 2 of the sensor chip at 5 μl/min. After coupling, a final immobilization level of 130 RUs was obtained. To study the binding of the antibodies to the chip surface, several concentrations of antibodies were prepared by serial 2-fold dilutions with running buffer. The injections were performed over both fc 1 and 2 at a flow rate of 50 μL/min for 120 s. Flow cell 1 was not derivatized and responses of fc 1 were subtracted from fc 2 to correct for instrument noise and bulk refractive changes. After each injection, the surfaces were washed immediately with running buffer for 100s. To remove any remaining bound antibody from the chip, surface regeneration was performed by injecting 1 μL of 10 mM Glycine-HCl pH 1.7. Kinetic analyses were performed using algorithms for numerical integration and global analysis using BIAevaluation 3.0. The sensograms obtained for injections of antibody at different concentrations were overlaid and the baselines adjusted to zero. For curve fitting, all data were fit simultaneously to a 1:1 homogeneous (Langmuir) model.

[2] = molecular target: T1, T3.30: Biotin-LC …; assay: SPR (Biacore X), T3.30 on streptavidin chip, antibody injected, 1:1 Langmuir fit; peptide lot 64% pure
Protocol: as §1

[3] = molecular target: T4, full-length (441 aa) Tau protein (SignalChem) (human, UniProt P10636 1-758); assay: ELISA, plate-coated protein; grade (+ Good binding)
T4 construct: Bought recombinant protein; also called Full-length Tau; non-phospho full-length Tau protein

[4] = molecular target: T5, phosphorylated full-length (441 aa) Tau protein (human, UniProt P10636 1-758, phosphorylated; the sites are not stated (preparation cited as Vandebroek et al., 2005)); assay: ELISA, plate-coated protein
T5 construct: Full-length 441 aa Tau; Coated at 1 µg/mL; also called pTau protein; Full-length pTau

[5] = molecular target: T4, full-length (441 aa) Tau protein …; assay: ELISA, plate-coated protein
[6] = molecular target: T2, non-phosphorylated Tau peptide T3.6: …; assay: hybridoma supernatant ELISA screen (conclusion of Example 1)
Protocol: (§2) Hybridomas ELISA screen was performed on pTau peptide (ACl-35, T3.5: Tau393-408[pS396/pS404; PolyPeptide Laboratories, Hillerød, Denmark), the corresponding non-phosphorylated Tau peptide (T3.6: Tau393-408, PolyPeptide Laboratories), phosphorylated full-length (441aa) Tau protein (pTau protein, Vandebroek et al., 2005) and full-length (441aa) Tau protein (Tau protein, SignalChem, Richmond, Canada). Finally Bovine Serum Albumin (BSA) was used as negative control.
(§3) Plates were coated with 10 μg/ml of corresponding Tau peptide and 1 μg/ml of corresponding Tau protein overnight at 4° C. After washing each well with PBS-0.05% Tween 20 and blocking with 1% BSA in PBS-0.05% Tween 20, undiluted hybridoma supernatant or medium negative control were added to the plates and incubated at 37° C. for 2 hours. After washing plates were incubated with an alkaline phosphatase (AP)-conjugated anti-mouse IgG total antibody (Jackson Laboratories, Baltimore, Pa., USA) for 2 hours at 37° C. After washing plates were incubated with pNPP (para-nitro-phenyl-phosphate), the phosphatase substrate for AP, and read at 405 nm using an ELISA plate reader. Results are expressed as O.D. (Optical Density).

[7] = molecular target: T3, pTau peptide T3.5: Tau393-408 …; assay: as above
Protocol: as §2, §3

T4 sequence (P10636 other isoform, or with tags, fused parts or gaps limits assumed): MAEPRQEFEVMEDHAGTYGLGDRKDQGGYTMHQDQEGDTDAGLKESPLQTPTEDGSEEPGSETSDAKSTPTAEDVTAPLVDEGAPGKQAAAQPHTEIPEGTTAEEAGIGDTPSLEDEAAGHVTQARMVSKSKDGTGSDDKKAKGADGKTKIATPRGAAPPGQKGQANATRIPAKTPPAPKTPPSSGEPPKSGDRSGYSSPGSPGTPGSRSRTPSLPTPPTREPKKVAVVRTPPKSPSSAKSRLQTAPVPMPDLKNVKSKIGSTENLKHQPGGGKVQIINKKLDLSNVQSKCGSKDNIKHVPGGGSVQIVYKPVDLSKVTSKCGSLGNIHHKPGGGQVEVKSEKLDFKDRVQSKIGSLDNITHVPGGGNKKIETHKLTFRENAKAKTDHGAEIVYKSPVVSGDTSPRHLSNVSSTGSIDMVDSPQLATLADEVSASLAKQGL
T5 sequence (P10636 other isoform, or with tags, fused parts or gaps limits assumed): as above

Binder | Kd [1] [nM] | koff [1] [s⁻¹] | kon [1] [M⁻¹ s⁻¹] | Kd [2] [nM] | koff [2] [s⁻¹] | kon [2] [M⁻¹ s⁻¹] | binding result [3] | binding result [6] | binding result [7] | binding result [4] | binding result [5]
ACI-35-2G5-Ab1 (antibody, IgG2a, V domains shown, also called ACl-35-2G5-Ab1; ACl-35-2G5-AB1) VH: QVQLKQSGAELVRPGASVKLSCKASGYTFTDYYINWVKQRPGQGLEWIARIYPGRGNIYYNEKFKGKATLTAEKSSSTAYMQLSSLTSEDSAVYFCARFWDVTYWGQGTLVTVSA VL: DVLMTQTPLSLPVSLGDQASISCRSSQSIVHSNGNTYLEWFLQKPGQSPKLLIYKVSNRFSGVPDRFSGSGSGTDFTLKISRVEAEDLGVYYCFQGSHVPYTFGGGTKLEIK | 70 | 0.0022 | 32000 | 10 | 0.0053 | 480000 | – | – | – | no binding (tested: up to 20 µg/mL antibody) | no binding (tested: up to 20 µg/mL antibody)
ACI-35-1D2-Ab1 (antibody, IgG2a, V domains shown, Biotinylated (-BT) in the AlphaLISA; also called ACl-35-1D2-Ab1; hybridoma A6-1D2-12) VH: not shown VL: NILMTQSPSSLAVSAGEKVTMSCKSSQSVLYSSNQKNYLAWYQQKPGQSPKLLIYWASTRESGVPDRFTGSGSGTDFTLTISSVQAEDLAVYYCLQYLSSLTFGAGTKLELK | 82 | 0.0018 | 22000 | ≤ 6 | 9.3e-06 | 1600 | – | – | – | – | –
ACI-35-2A1-Ab1 (antibody, IgG2b, V domains shown, Biotinylated (-BT) in the AlphaLISA and as detector in the Setup 1 ELISA; also called ACl-35-2A1-Ab1; hybridoma A4-2A1-18) VH: EVQLQQSGPELVKPGASVKISCKASGYTFTDYYMNWVKQSHGKSLEWIGDINPNNGGTSYNQKFKGKATLTVDKSSSTAYMELRSLTSEDSAVYYCVREGRFAYWGHGTLVTVSA VL: DIVMTQAAPSVPVTPGESVSISCRSSKSLLHSNGNTYLYWFLQRPGQSPQLLIHRMSNLASGVPDRFSGSGSGTAFTLRISRVEAEDVGVYYCMQHLKSPYTFGGGTKLEIK | 38 | 0.001 | 27000 | – | – | – | – | – | – | – | –
ACI-35-2G5-Ab2 (antibody, IgG2b, V domains shown, also called ACl-35-2G5-Ab2; ACl-35-2G5-AB2) VH: EVQLQQSGPELVKPGASVKISCKASGFTFTDYYMNWVKQSHGKSLEWIGDINPNNGGTSYHQKFKGKATLTVDKSSSTAYMELRSLTSEDSAVYYCVREGRFAYWGQGTLVTVSA VL: DIVMTQSQKFMSTSVGDRVSVTCKASQNVGTNVAWYQQKPGQSPKALIYSASYRYSGVPDRFTGSGSGTDFTLTISNVQSEDLAEYFCQQYNSYPYTFGGGTKLEIK | 10 | 0.00023 | 24000 | – | – | – | – | – | – | – | –

Now from value to binder, other results behind:

Kd [1] [nM] | koff [1] [s⁻¹] | kon [1] [M⁻¹ s⁻¹] | Kd [2] [nM] | koff [2] [s⁻¹] | kon [2] [M⁻¹ s⁻¹] | binding result [3] | binding result [6] | binding result [7] | Binder | binding result [4] | binding result [5]
15 | 0.0017 | 110000 | 16 | 0.0031 | 200000 | binds | – | – | ACI-35-4A6-Ab1 (antibody, IgG2b, V domains shown, also called ACl-35-4A6-Ab1; hybridoma A4-4A6-18) VH: QVQLQQPGAELLKPGASVKLSCKASGYTFTSYWMHWVKQRPGRGLEWIGRIDPNSDRTKYNEKFKRKATLTVDKSSSTAYMQLSSLTSEDSAVYYCARDDYAWFAYWGQGTLVTVSA VL: DVLMTQTPLSLPVSLGDQASISCRSSQSIVHSNGNTYLEWYLQKPGQSPKLLIYKLSNRFSGVPDRFSGSGSGTDFTLKISRVEAEDLGVYYCFQGSHVPPTFGGGTKLEIK | – | –
2 | 3.8e-05 | 17000 | – | – | – | – | – | – | ACI-35-2G5-Ab3 (antibody, IgG2b, V domains shown, Biotinylated (-BT) in the AlphaLISA and as detector in the Setup 1 ELISA; also called ACl-35-2G5-Ab3; ACl-35-2G5-AB3) VH: EVQLQQSGPELVKPGASVKISCKASGFTFTDYYMNWVKQSHGKSLEWIGDINPNNGGTSYHQKFKGKATLTVDKSSSTAYMELRSLTSEDSAVYYCVREGRFAYWGQGTLVTVSA VL: DIVMTQSQKFMSTSVGDRVSVTCKASQNVGTNVAWYQQKPGQSPKALIYSASYRYSGVPDRFTGSGSGTDFTLTISNVQSEDLAEYFCQQYNSYPYTFGGGTKLEIK | – | –
– | – | – | – | – | – | – | binds | binds | ACI-35-4A6-Ab2 (antibody, V domains shown, also called ACl-35-4A6-Ab2; hybridoma A4-4A6-48) VH: EVQLQQSGPELVKPGASVKISCKASGYTFTDYYMNWVKQSHGKSLEWIGDINPNNGGTSYNQKFKGKATLTVDKSSSTAYMELRSLTSEDSAVYYCVREGRFAYWGHGTLVTVSA VL: DIVMTQAAPSVPVTPGESVSISCRSSKSLLHSNGNTYLYWFLQRPGQSPQLLIYRMSNLASGVPDRFSGSGSGTAFTLRISRVEAEDVGVYYCMQHLKSPYTFGGGTKLEIK | – | –
